Assay results as given in the NTF2 design screens of Basanta et al. (2020).

Test: protease stability score; higher = more stable; yeast display proteolysis, trypsin and chymotrypsin;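 note: log10 excess protease needed over predicted unfolded state with 0 meaning unfolded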

Sequence | protease stability score
DERKAVKHLNTMMRLINTGNPSEAADQADKDVKVHIGDKDVHGRERASDLIKKLRDRVDTIKVKSIEERPNHLSAKIDLEHNGRTHTVVFIIHAENGKVTSMSVKTD | -0.349
DESQAKEFVDNFKTNNREELQKQVDKDAKMIVGNKEYHGEEQVQDALRDLNEEVDHLTIKSVELKGNSVTIYFIIVINGTRMTVHVVAVFHNGRVKKEVWTATDEDDKRKIDQVVG | 0.281
DESLAEQWMRDIKSNNEERFRRYVDPNVHADVGNFKVHGRHDLVEQLRKLLEQVDHLDYHSVSADGDDVTVDVVIDVNGNTVRYELIVRFHNGQAHSLQMHVTNPDQDRQLHEVVK | -0.013
DDEESEKFAEDAMRILQTGDEEKFVRQADPNARVVYGEKTVHGREEAKKEVKTFRDRVDKIDVHHVEVTNGKAFLDATFRFDGRDRHYVVEIVRHNGRIKQMVMKKK | -0.166
DHEDAEKMKDLLTAEQQNDPDKVKEQADPNAQFRIGDQKVHGRNQYARIVKTLMERADVHILRIDNKDHNGQVHVSIDRVIDYNGRPKRDTETATARFHNGRLKELHIQFDPKKYQELKK | 0.027
DHEARKLMKRFFSAINHGDPDQIRKNVDKDVKAQVGDKTVHGREEWVKWMTRRLDEIKMHYDVTTIDVQGDKVHAQAKVRYDVDGRPITDQVTFTARIENGKITSLSLRMDPENQQKIEK | 1.15
DDEKVAEQIMNEVLTAIKNNDPQEAADNMDKDARAEVGDNDLTGRERLSKWWVTMANRADHITAHVDSVDEQGDKIHVVWKYTADINGQQVSKDIKFVVVRQNGRVKIKRIKND | 1.11
DHEEQMEKFIKTLKKLMKNNDWETWASLADPNAEARYGDSEYHGREKIVTHMRKLQEHVDHADLKFRSVSLRNGEVTMRISFHVKVNGTDQSHEAKLVLEIDNGRAVIKKMVLD | 0.795
DEEELQSVKEYIENLQTNNESRLRKYADPNAQITVGDKVIHGMEDFQRQMEEDRRHSRISFKSVEFRYHDGKAVVHAEFTHVDNGQPDEVRVDYRFKLHNGRIKSQNVREVK | -0.331
DDTVKEQAEKFFTAQNTGNPDQIANLVDPNARFTIGDKEYHGRENFKSWMETVRDKMDVDYQITDLKTDENHADVVAEYTSTHNGQPERRRMRVDMRLSNGRMKEVNIEDRS | -0.503
DDRDEAHKLHEDYDRVMQTGDDDRVREMVDPNAKLRIGDQDLRGREELAELMKRQRDRADHVRIELRSVKVDGNKITMKLNFHLDHNGRTENTDATYHYEKDNGQWELKHAKVS | -0.052
DEEKVVKVLKQALEAVQKGNQERVRKLGKPDVEVEAVNIREKGPEALRKAAQYVQKLGDKFEYKEEREEGDKVTTKVDVTRGGQTVTYQVDVVAEGGKVKEWVVNFSDTFAERVKKS | -0.268
DDHNVRVMREIQKAIEKNDEKRFKELVDPNVRVRIGDNLIHGRDNVAKELKREMDHMRKNIRSMSIDDEGDHVVINIEYEQNENGHPDTNRVQVSAELHNGKLKEMHISSRQ | 1.02
DEKKALTLAKKAFEVIKKGDKEKAKKLGKPDVKYEYLDKKYTGPEAMEHIVEYVQKLGMEVRVKRNEEKGGTVRVDFDYQRGDQQVRTTAEVEYEGDKLKRFRVEMSEEVKKHITQG | 0.093
DEEDEQKLAQTLAEVWKQNDEDQFVRLLDKDARVKVGDNEFRGREEAKRMMQELHRRVDHMEIKSVHAKNGSITATLRAEINGKEWRFILEAVYHNGQVKSVHIRDQ | 1.68
DHEVAKTMMEEWQKALENGDDKKLKELYDPDGEWEADDEQDQGTEVIEKLMEKVKKQGLKFQVRKAKVEGDKFTVVYDLHVGNKTATFEVEVHVEGGRIKKVKAKADEEAKKLITEG | 1.98
DREVLKEFLKQFHEGNFHEVARMADPNAEVEVGDKTVEGREHLITLHKHIHDKADHASIHRVEIHNGRINVELTVNFNGTNVVYRFTLEAENGKLKNINYRARDSDQKRILKRLWG | 0.091
DERKQHEVAEKVAKNFVDGNPSEFVKNMDPNAEVVIGDKTVTGREDIHRLVKDFHDKIDHIELKDLKVKNGRIEIIFQADNNGHKRQYRADVKANNGRMTTFEVREQ | 0.927

Sequence | protease stability score
DEEAIHRMEEFIKNVNNNNEEKLKELADPNVDAHIGDKVIHGMERIVTELVKELENIDIEYKDMRVEDRGDNIHIQIRAIFHHNGKPQEHTQIIDVQVENGKVKKMRRSSDS | 0.185
NEEQAKRLAEKWIRAVENGNVDELRKLGKPDMEVVAVNEKAKGVDTVHKYMKKFTDRGVELKVDRAKNTGGRVRYTVRARYGGQELTAEVVIDIKDGKVDKVEFRVDERQAQYVLRG | 0.812
DDSMVRLAHTVIDNWRQGDEKKAMELLDPNARAEIGDKTIHGREQMSDEIRKQRTEQRLDIKVKRLEDRPGHVVIDAENTNSKNGRPRTNRVQIHLTAQGDKLKRLRIQNDS | -0.05
EEEQLKILQELRKALQDNDSERMKELFDEDVKVQVGDKTITGREKVVDDLRRKAEEQRIQYVTMSARAENGHITVRLQFVNTHNGRPHRRERKLDITLHNGKFKSARYDNDG | 0.842
DERLHKQIERLFEQLNTGDEDKYVEYADPNARINVGDKNVHGRDQIRHMIRKENQEIRVEYEVKDIKASNGRARVDATVENEENGRPHTNRIDLVINVHNGRAKEIELRVPEDLLRTMKS | -0.131
EREVVQEAAKAINSNDFRRLSELMDKDVKMQYGDKTLSGREEVETLLKSLHEQIDTFTVDHYHVEGNKAEVDARFHFNGKRLRMHLYAVAHNGRIQEMKIQATTEHQQEELSRLWR | 0.613
DEEALHILERFLKLMETNDEETLRDLVDPNAENRVGDKTVHGREDFQREVHTMKKQWRVRFRHIDNQSRPNEAVVRANVNNDINGRPITEDVVFRADFKNGKLKSLHIQMPEEYKKELDK | 0.455
DETAERLEHQLKSALETGDEESAKKQFDPNVKFQYGDKVIHGMENAIERIVKRLKELHVSVELKSMHVEGNNIQADLVATENHNGQPRTRRFTLHVTWRNGRIQEIRQQDTK | 1.31
DEEHRAKTAQDDIRRINQNGDPDQMHRLADKDARIQIGDTFLHGREQIKEQMERDNKKFDHQQVEIKKVEVRGDKVRIVAEIKADFNGDNKTTRFVIYLTVKNGRVKMKKVTDG | -0.194
DEEKILQDLIKTYQDLAKTNDFESMAKEADEDAHVNIGDKEVHGRESLNKHFRQLQKEVDHVEVDVRDYRVHGDKFEIKFVVNNQRDGQTDRKTVRIEYVQNGDKVRAKSFTTG | -0.176
DQEAAEILKRFVKAIKTGDPDEAKEQMDKDVKVRVGDKVIHGREEVAKEVEQTNRNLRLEVEINDYTVDGDKVTIRMRIVTNENGRPDVKTVKVTAHAHNGRLVHLEIQSDS | 0.778
DEDLLRKIKQLLRAFEDNNEDQLRKNADPNARFVYGDKHIHGMEEAMRHQVTRYKEIRIERQIDTMSVTNGRANVQFTVVENHNGRPDTFHVQVDIKAHNGRVHTIEYEIHK | 0.387
DEEAKEVLERWHTAIKHGDPNLAKEMADKDVRINVGDKSFSGMEQNAKDMHRERNELEYEILSVRFEVHGDKVKVEFHATRNNNGNPDTKKFDLTATASNGKATRVTLQSSG | -0.538
DEEDMDEVEKAIRKNDPEKMRDLADENAKASVGDNQFHGRDNVENFMKHLTDHADHVQVDSVEKHNGRVVVNAQLDINGEQIQIVIRIDVHNGKIKRFSIEVRDEEAHHFMREMVS | 0.895
DEEENTKVMERFLDAVKRGNEDDLHELADKDVRLTVGDKEYHGREEIMEYLHEWRKKVDHIDFDSYTVRGNTVEVHFQVHDNGQNEDVVVQVEVHNGRVKTVRYRHK | 1.72
DDDEVRKIREFMHVMSRGDSNRAMEMADPNAHFKVGDKTINGRESFKSWLRKQREEIHVQIDDVTNTSEPGHVEVNADVTFEHNGQPDRVTLIMIARLKNGRITFLEIRRKK | 1.33
DEHEEAKKVADRMIEVEKTGDEDSLTENFDPNVRFKIGDRTYHGEKDMQQLLREIKERADHIDIDVKHVTAHNGRADIDRVRVIQVDGQRRKQRIRMDLTFHNGRLHLKQMKVD | 0.31
DEEDANNVAEQMMEIVERGDEERASELADPNAKFNIGDKKYEGRENLQKAIRHFRQRADHLEIKSLSVTPGHLKMRFVVKHNGQRNEVVIHVKAHNGKIVEIQVRNS | 0.15
